The values below come from article PMC8577781.

The assay concerns the target human recombinant CXCL10 (human) (UniProt P02778).
UniProt P02778, sequence (P02778 22-98): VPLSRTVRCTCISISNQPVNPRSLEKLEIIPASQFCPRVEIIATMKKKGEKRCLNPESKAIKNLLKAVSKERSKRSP
Take “L. (L.) major GP63 (glycoprotein-63), wild-type allele gp63^PYSDGS (from UniProt P08148 40-577) (enzyme)”: the CXCL10 cleavage rate: GP63 in conditioned medium incubated with 1000 pg/mL CXCL10 for 2 hours, remaining CXCL10 measured by ELISA, rate by linear regression turned out to be 6.07 pg/mL/min.
In the case of “L. (L.) major GP63 D463N mutant gp63^PYSNGS (from UniProt P08148 40-577) (enzyme)”, the CXCL10 cleavage rate: GP63 in conditioned medium incubated with 1000 pg/mL CXCL10 for 2 hours, remaining CXCL10 measured by ELISA, rate by linear regression is 1.16 pg/mL/min.
Then “L. (L.) major GP63 triple mutant gp63^GYSNGA (from UniProt P08148 40-577) (enzyme)”, with 0.14 pg/mL/min.
